Experimental data reported in US20030171551A1 (published 2003).

Biological target: T1, soluble extracellular domain of HER2/neu (ECD) (UniProt P04626 23-652, limits assumed)
T1 construct: extracellular domain; Immobilized on the IAsys microcuvette; also called soluble HER2/neu antigen
Test: IAsys optical biosensor, HER2/neu ECD immobilized on the cuvette

B1: RANTES.Her2.IgG3 (other)
chain: SPYSSDTTPCCFAYIARPLPRAHIKEYFYTSGKCSNPAVVFVTRKNRQVCANPEKKWVREYINSLEMS
B1 showed a Kd of 53 nM.
